Measured values reported in the supplement of paper PMC10567573.

B1: TMEM120A (parent)
chain: YQSFVQFLQYYYQSGCLYRLRALG
B2: DLC1 (parent)
chain: HVTHWMGQPFNSDDRNTACHHGLV

Variants of: B1
Test: protein stability index of a GFP-peptide fusion (GPS, HEK-293T) (PSI 1-6); higher = more stable
Conditions: c terminus: a fixed tail appended
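Note: lentivirally expressed fusions sorted by FACS into six bins by GFP to DsRed ratio, PSI derived from sequencing read proportions per bin multiplied by bin number.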

Protein stability index of substitutions, site by site:
Y11: S 3.12; C 2.45; M 3.5; W 1.74; L 1.34; F 3.33; A 1.28; R 3.03
R19: A 2.88; S 3.54; P 2.84; E 2.1; H 3.88; C 2.93; G 1.88; V 1.95; Y 2.66; T 1.74; I 1.84; K 3.35; L 1.22; M 1.97
L17: C 3.92; M 2.14; W 3.23; R 4.75; T 1.6
C16: R 2.24; N 1.04; T 2.12; Q 2.49; K 1.72
F7: Y 5.14; D 1.8; T 2.28; N 3.1; I 2.33; W 3.54; H 1.62; L 3.51
S14: H 2.92; V 3.65; E 2.56; G 3.08; T 3.4; R 1.84; N 4.03; Q 2.52; M 2.02
L8: S 1.28; Y 2.79; C 2.17; D 1.91; Q 2.13; A 3.44; G 3.09; T 1.88; H 1.73; N 2.08; E 1.66; W 1.62
Q6: G 3.6; E 1.84; F 1.8; N 2.48; W 3.03; D 3.22; R 2.24; V 2.92; L 3.11
F4: A 3.21; I 3.47; S 1.59; T 3.43; W 2.8; P 2.47; Y 2.38; L 3.35; C 3.14; V 4.44; R 1.62
L20: V 3.1; A 1.85; E 2.34; M 2.47; R 1.47; D 2.38; K 3.64; Q 4.03; W 2.31
R21: K 2.17; N 3.14; F 1.58; Y 2.7; D 2.28
Q13: L 2.38; H 2.75; M 4.22; G 2.27; F 2.43; W 4.1; C 3.12; S 3.55; T 1.8; Y 1.97; N 2.81
Q2: A 2.37; Y 1.83; L 3.88; F 3.7; I 2.65; W 1.21; S 2.29; M 3.47; R 1.21
G15: S 2.95; I 2.66; W 1.9
Y18: P 2.45; I 2.96; K 1.86; A 1.84; L 4.02; N 1.79; T 1.9; E 2.07; R 1.85
V5: C 2.31; N 4.88; F 2.25; H 2.39; R 3.82; Q 1.89; M 2.91; I 3.51; K 2.62
Y12: T 2.73; L 1.19; C 4.09; K 1.86; A 3.04; F 2.15; H 2.51; G 2.04; I 2.34; R 2.3
Y1: E 1.49; M 2.68; F 3.06; Q 2.83; S 1.86
L23: G 3.3; P 2.6; C 3.82; S 2.6; F 1.77
G24: N 1.07; Q 3.31; W 2.13; Y 2.12; A 1.65; C 1.89; R 2.65; F 2.43; P 2.47; K 3.01; M 2.92; L 2.97; T 2.27
Q9: F 2.13; C 2.9; A 2.91; W 2.71; P 1.25; M 1.77; L 2.74; N 2.7
A22: S 2.32; Y 2.13; I 3.44; H 4.48; L 3.17; K 1.96; F 1.59; T 3.45
S3: Y 4.62; D 3.12; R 2.35; P 3.24; M 3.7; A 1.05; V 3.32; H 2.33; L 3.8; N 2.12
Y10: I 4.51; A 1.83; H 2.17; G 3.01; S 2.58; Q 2.35; C 2.56; E 1.79

Variants of: B2
Test: as above
Conditions: c terminus: a fixed tail appended

Protein stability index, by site and new letter:
H4: G 1.5; E 2.63; F 1.72; Y 1.44; Q 1.78; D 2.49; P 2.17; N 2.11; V 2.08; C 2.49; M 2.72; I 1.89; K 2.18; R 1.97; T 2.38; S 2.64; A 1.47; W 1.6; L 1.7
G7: S 1.65; K 1.89; T 1.91; Q 2.07; A 2.35; M 1.39; R 1.76; F 2.45; E 2.63; I 2.03; H 1.97; C 2.02; N 2.23; D 2.46; L 2.26; V 1.84; P 2.24
H1: V 2.51; E 2.78; W 1.78; Y 3.14; G 3.08; F 1.89; A 2.68; P 3.08; I 1.83; N 2.76; C 2.04; Q 2.68; L 2.14; R 2.31; M 2.5; S 2.61; D 2.68; T 2.91; K 2.46
M6: C 2.86; H 2.34; T 2.12; P 2.44; G 2.16; Y 2.23; D 3.03; N 2.92; Q 2.74; S 2.4; R 2.63; L 1.93; F 2.02; V 2.48; A 2.75; W 2.15; E 3.24; I 2.12; K 3.28
W5: T 3.43; V 3.55; D 4.27; K 3.12; P 3.3; F 2.72; I 3.02; G 3.89; N 3.86; Y 3.01; R 3.56; C 3.33; E 4.26; H 3.8; L 2.53; S 4; A 3.26; Q 3.47; M 3.04
V2: P 3.15; Q 2.87; H 2.35; N 3.11; T 2.71; A 2.8; W 1.98; G 3.3; F 2.71; D 3.76; Y 2.42; I 2.22; E 3.78; S 2.62; C 2.48; K 2.65; M 2.71; R 3.05; L 2.74
T3: V 2.78; C 1.8; L 1.59; Q 1.93; W 1.4; H 1.93; M 2.05; I 2.01; R 1.95; D 1.66; S 1.64; Y 1.91; A 2.5; E 2.38; F 1.69; K 1.91; N 1.99; P 3.11; G 1.19
